Measurements as given in doi:10.1101/2020.09.22.307744 (bioRxiv, 2020).
Like-named read-outs stand apart in the source and are kept apart here.

Legend:
Experiment in all cases: MST
[1] = biological target: Luminal domain of human PERK (PKR-like endoplasmic reticulum kinase), His-tagged (human) (UniProt Q9NZJ5)
[2] = biological target: Luminal domain of human ATF6 (activating transcription factor 6), His-tagged (human) (UniProt P18850)
[3] = biological target: Luminal domain of human IRE1α (inositol-requiring enzyme 1α), His-tagged (human) (UniProt O75460)
[4] = biological target: the molecule itself
[5] = biological target: the molecule itself; remark: listed apart in the source
[6] = biological target: the molecule itself; remark: listed apart in the source
[7] = biological target: Human recombinant GRP78 (BiP, binding immunoglobulin protein) (human, UniProt P11021 19-654)
Human recombinant GRP78 (BiP, binding immunoglobulin protein), sequence (P11021 19-654): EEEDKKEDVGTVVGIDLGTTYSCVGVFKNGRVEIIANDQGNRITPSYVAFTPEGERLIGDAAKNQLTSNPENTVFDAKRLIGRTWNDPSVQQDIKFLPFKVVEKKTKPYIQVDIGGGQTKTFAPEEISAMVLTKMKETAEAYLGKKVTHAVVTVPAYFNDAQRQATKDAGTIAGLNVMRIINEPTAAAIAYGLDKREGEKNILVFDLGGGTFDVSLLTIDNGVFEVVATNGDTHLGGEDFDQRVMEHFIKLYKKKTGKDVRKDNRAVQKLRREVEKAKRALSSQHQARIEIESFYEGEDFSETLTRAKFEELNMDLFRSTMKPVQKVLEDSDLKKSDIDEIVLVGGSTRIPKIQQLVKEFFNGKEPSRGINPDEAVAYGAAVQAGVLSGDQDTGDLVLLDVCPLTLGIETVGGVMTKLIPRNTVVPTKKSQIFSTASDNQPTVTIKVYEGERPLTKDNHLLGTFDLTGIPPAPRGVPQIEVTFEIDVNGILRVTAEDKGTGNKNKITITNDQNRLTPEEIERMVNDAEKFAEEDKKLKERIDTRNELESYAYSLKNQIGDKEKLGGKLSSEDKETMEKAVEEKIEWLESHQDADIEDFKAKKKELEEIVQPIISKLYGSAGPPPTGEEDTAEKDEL

C-terminal domain of human MANF (C-MANF), E.coli produced (domain or fragment)
Kd [1]: 1400 nM | Kd [2]: 1300 nM | Kd [3]: 241 nM

C-terminal domain of human MANF (C-MANF), chemically synthesized (domain or fragment)
Kd [1]: 7.6 nM | Kd [2]: 9.8 nM | Kd [3]: 9.5 nM

MANF K128A C130S, recombinant human mutant protein (from UniProt P55145 25-182) (natural protein)
Kd [3]: 55 nM

Mesencephalic astrocyte-derived neurotrophic factor (MANF), recombinant human (from UniProt P55145 25-182) (natural protein)
Kd [1]: 384 nM | Kd [2]: 347 nM | Kd [3]: 94.7 nM

B1: Luminal domain of human IRE1α (inositol-requiring enzyme 1α), His-tagged (domain or fragment, UniProt O75460 19-443, looked up)
chain: IFGSTSTVTLPETLLFVSTLDGSLHAVSKRTGSIKWTLKEDPVLQVPTHVEEPAFLPDPNDGSLYTLGSKNNEGLTKLPFTIPELVQASPCRSSDGILYMGKKQDIWYVIDLLTGEKQQTLSSAFADSLCPSTSLLYLGRTEYTITMYDTKTRELRWNATYFDYAASLPEDDVDYKMSHFVSNGDGLVVTVDSESGDVLWIQNYASPVVAFYVWQREGLRKVMHINVAVETLRYLTFMSGEVGRITKWKYPFPKETEAKSKLTPTLYVGKYSTSLYASPSMVHEGVAVVPRGSTLPLLEGPQTDGVTIGDKGECVITPSTDVKFDPGLKSKNKLNYLRNYWLLIGHHETPLSASTKMLERFPNNLPKHRENVIPADSEKKSFEEVINLVDQTSENAPTTVSRDVEEKPAHAPARPEAPVDSMLKD
modifications: labelled copy: Monolith His-Tag Labeling Kit RED-tris-NTA dye on the His-tag (legends also say Alexa647-labeled through His-tag)
Kd [4]: 40 nM | Kd [5]: 7.3 nM | Kd [6]: 2.7 nM | Kd [7]: 119 nM

B2: Luminal domain of human ATF6 (activating transcription factor 6), His-tagged (domain or fragment, UniProt P18850 399-670, looked up)
chain: EQDSRRMNPSVSPANQRRHLLGFSAKEAQDTSDGIIQKNSYRYDHSVSNDKALMVLTEEPLLYIPPPPCQPLINTTESLRLNHELRGWVHRHEVERTKSRRMTNNQQKTRILQGALEQGSNSQLMAVQYTETTSSISRNSGSELQVYYASPRSYQDFFEAIRRRGDTFYVVSFRRDHLLLPATTHNKTTRPKMSIVLPAININENVINGQDYEVMMQIDCQVMDTRILHIKSSSVPPYLRDQQRNQTNTFFGSPPAATEATHVVSTIPESLQ
modifications: glycosylated (PNGase F assay); Monolith His-Tag Labeling Kit RED-tris-NTA dye on the His-tag
Kd [7]: 21 nM

B3: Luminal domain of human PERK (PKR-like endoplasmic reticulum kinase), His-tagged (domain or fragment, UniProt Q9NZJ5 30-514, looked up)
chain: AGRARGLPAPTAEAAFGLGAAAAPTSATRVPAAGAVAAAEVTVEDAEALPAAAGEQEPRGPEPDDETELRPRGRSLVIISTLDGRIAALDPENHGKKQWDLDVGSGSLVSSSLSKPEVFGNKMIIPSLDGALFQWDQDRESMETVPFTVESLLESSYKFGDDVVLVGGKSLTTYGLSAYSGKVRYICSALGCRQWDSDEMEQEEDILLLQRTQKTVRAVGPRSGNEKWNFSVGHFELRYIPDMETRAGFIESTFKPNENTEESKIISDVEEQEAAIMDIVIKVSVADWKVMAFSKKGGHLEWEYQFCTPIASAWLLKDGKVIPISLFDDTSYTSNDDVLEDEEDIVEAARGATENSVYLGMYRGQLYLQSSVRISEKFPSSPKALESVTNENAIIPLPTIKWKPLIHSPSRTPVLVGSDEFDKCLSNDKFSHEEYSNGALSILQYPYDNGYYLPYYKRERNKRSTQITVRFLDNPHYNKNIRKKD
modifications: Monolith His-Tag Labeling Kit RED-tris-NTA dye on the His-tag
Kd [7]: 14.1 nM
